The source of these data is patent publication US20220267469A1.

For assay [1], the target named is Biotinylated human BSSL (human) (UniProt P19835). Put plainly: flow cytometry displacement assay; 0.5 ug antibody, 1 ug b-hBSSL. A general note: In flow cytometry, cells or beads pass a laser one at a time.
The target is the same in assay [2]. Put plainly: flow cytometry displacement assay; 1.0 ug antibody, 1 ug b-hBSSL.
Assay [3] has the same target. Put plainly: flow cytometry displacement assay; 1.5 ug antibody, 1 ug b-hBSSL.
The target is the same in assay [4]. Put plainly: flow cytometry displacement assay; 2.0 ug antibody, 1 ug b-hBSSL.
The target is the same in assay [5]. Put plainly: flow cytometry displacement assay; 3.0 ug antibody, 1 ug b-hBSSL.

Biotinylated human BSSL (human), sequence (P19835 other isoform, or with tags, fused parts or gaps): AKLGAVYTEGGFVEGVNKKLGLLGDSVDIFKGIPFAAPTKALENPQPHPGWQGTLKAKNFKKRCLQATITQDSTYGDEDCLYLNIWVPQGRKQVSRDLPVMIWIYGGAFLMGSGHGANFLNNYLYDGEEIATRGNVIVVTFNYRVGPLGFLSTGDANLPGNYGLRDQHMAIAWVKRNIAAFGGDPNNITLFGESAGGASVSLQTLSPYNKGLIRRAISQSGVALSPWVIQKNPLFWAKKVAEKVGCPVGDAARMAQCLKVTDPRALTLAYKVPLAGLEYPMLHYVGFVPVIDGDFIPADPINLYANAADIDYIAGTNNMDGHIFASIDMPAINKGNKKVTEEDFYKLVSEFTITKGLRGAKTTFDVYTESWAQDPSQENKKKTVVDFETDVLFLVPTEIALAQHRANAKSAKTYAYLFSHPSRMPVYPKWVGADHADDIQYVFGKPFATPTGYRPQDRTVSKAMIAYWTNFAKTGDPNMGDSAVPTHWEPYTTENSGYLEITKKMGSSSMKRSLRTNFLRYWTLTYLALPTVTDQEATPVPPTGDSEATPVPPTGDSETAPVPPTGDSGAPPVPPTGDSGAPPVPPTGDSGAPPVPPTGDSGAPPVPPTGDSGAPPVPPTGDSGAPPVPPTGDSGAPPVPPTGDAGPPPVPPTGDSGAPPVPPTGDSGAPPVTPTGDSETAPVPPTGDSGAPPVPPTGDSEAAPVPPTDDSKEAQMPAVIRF

In the case of “anti-human alpha-synuclein mlgG1 (antibody)”, the percentage reduction of b-hBSSL binding to CD14+ monocytes in assay [1] was -8%; in assay [2] it was -2%; in assay [3], -4%; in assay [4] it was -1%; in assay [5] it was -7%.
